Numbered stars: 1 amine (or outer) side, 2 acyl side, 3 side chain; on linkers, the order of the positions; unused ones are H or OH. Bridge positions count the residues as written; N and C are the ends. Square brackets hold non-standard residues; d marks the D form. Peptide text beside a SMILES is read from it. I, II: the chains in the order shown. * marks the point of attachment. Hexanoyl(6-succinimido-3yl) = O=C1CC([*:1])C(=O)N1CCCCCC(=O)[*:2]; Pteroyl = Nc1nc2ncc(CNc3ccc(C(=O)*)cc3)nc2c(=O)[nH]1; Dolaproine = CO[C@@H]([C@@H]1CCCN1)[C@@H](C)C(=O)O; Dil = CC[C@H](C)[C@H](NC)[C@@H](CC(=O)O)OC; γGlu = O=C(O)[C@H](CCC(=O)[*:2])N[*:1]; PABC = O=C(OCc1ccc(N[*:1])cc1)[*:2]; X1 = C[C@@H](N*)[C@@H](O)c1ccccc1; Cit = NC(=O)NCCC[C@H](N)C(=O)O; NMeV = CN[C@H](C(=O)O)C(C)C
Experiments:
[1] = Detection of conjugate concentrations in xenograf tumor models (serum, anti-MMAE ELISA); assay type: in vivo, nude mice; conditions: 10 mg/kg, peritoneal injection
Protocol: (§1) Animal: nude mice, aged 6-8 weeks, female
1) Human ovarian cancer cell SKOV3 and breast cancer cell line HCC1954 were incubated at 37° C., 5% CO2 in IMDM medium containing 10% fetal bovine serum, the cells were passaged every 2-3 days.
2) generation of tumors: 7×10^6 tumor cells were injected subcutaneously into the back of nude mice, and the mice were grouped for treatment after the tumor sizes were as large as about 100˜200 mm^3.
3) treatment: 3 mice/group, 10 mg/kg, peritoneal injection.
4) blood collection: the time for blood collection before treatment was set as 0, blood was collected at 20 min, 2 h, 4 h, and 24 h after treatment. The blood was centrifuged to collect serum, which was frozen and preserved.
5) Detection: the total amount of MMAE, LDC10B, LDC10H, as well as the MMAE metabolites of LDC10B and LDC10H in serum were detected by mice anti-MMAE ELISA kit.

[2] = test system: human lung cancer cell H1299; experiment: Cytotoxicity test of conjugate LDC10B; assay type: cell-based; conditions: H1299, Incubation Time 30 min
Protocol: (§2) Culture medium: RPMI 1640 Medium, no folic acid
(§3) 1) human nasopharyngeal cancer cell line KB, melanoma cell line A375, human lung cancer cell H1299, chronic myeloid leukemia cell line K562, human lung cancer cell H460, ovarian cancer cell SKOV3, breast cancer cell line HCC1954, human gastric cancer cell N87, and human breast cancer cell SK-BR-3 were incubated at 37° C., 5% CO2 in RPMI 1640 medium containing 10% fetal bovine serum, the cells were passaged every 2-3 days.
(§4) 2) human nasopharyngeal cancer cell line KB, melanoma cell line A375, human lung cancer cell H1299, chronic myeloid leukemia cell line K562, human lung cancer cell H460, ovarian cancer cell SKOV3, breast cancer cell line HCC1954, human gastric cancer cell N87, and human breast cancer cell SK-BR-3 were plated at 1×10^3 cells per well (96-well plate) and incubated for 8-12 h at 37° C., 5% CO2.
(§5) 3) Stock solutions of LDC conjugates or controls were prepared in PBS solution. 100 μL/well of serially diluted LDC conjugates or controls was added to the test cells in the plates and incubated for 15-30 min at 37° C., 5% CO2. The culture medium in the wells was then removed by aspiration and the test cells were incubated in fresh culture medium without conjugates (150 μL/well) for 2-3 days at 37° C., 5% CO2.
(§6) 4) CellTiter 96® Aqueous One Solution Cell Proliferation Assay (Promega) was added to each well to measure the amount of […] cells, and each plate was incubated in an incubator for 1 h at 37° C., 5% CO2.
(§7) 5) Each plate was read at 490 nm on a microplate reader, and the cell survivals were compared for test cells with or without the treatment of LDC conjugates. The LDC drug concentrations that are required for 50% cell death (IC50 values) were determined.

[3] = test system: human gastric cancer cell N87; experiment: Cytotoxicity test of conjugate LDC10B; assay type: cell-based; conditions: N87, Incubation Time 30 min
Protocol: as §2, §3, §4, §5, §6, §7

melanoma cell line A375 [4] = experiment: Cytotoxicity test of conjugate LDC10B; assay type: cell-based; conditions: A375, Incubation Time 15 min
Protocol: as §2, §3, §4, §5, §6, §7

[5] = test system: human nasopharyngeal cancer cell line KB; experiment: Cytotoxicity test of conjugate LDC10B; assay type: cell-based; conditions: Incubation Time 15 min
Protocol: as §2, §3, §4, §5, §6, §7

[6] = test system: human breast cancer cell SK-BR-3; experiment: Cytotoxicity test of conjugate LDC10B; assay type: cell-based; conditions: SK-BR-3, Incubation Time 30 min
Protocol: as §2, §3, §4, §5, §6, §7

[7] = test system: chronic myeloid leukemia cell line K562; experiment: Cytotoxicity test of conjugate LDC10B; assay type: cell-based; conditions: K562, Incubation Time 30 min
Protocol: as §2, §3, §4, §5, §6, §7

[8] = test system: human lung cancer cell H460; experiment: Cytotoxicity test of conjugate LDC10B; assay type: cell-based; conditions: H460, Incubation Time 30 min
Protocol: as §2, §3, §4, §5, §6, §7

Transplanted SKOV3 tumor = experiment: Inhibitory assay of conjugates LDC10B and LDC10H against xenograf tumors; assay type: in vivo, nude mice; conditions: 10 mg/kg
Protocol: as §1
(§8) 1) human large cell lung cancer cell H460, human lung cancer cell A549, ovarian cancer cell SKOV3, and breast cancer cell line HCC1954 were incubated at 37° C., 5% CO2 in IMDM medium containing 10% fetal bovine serum, the cells were passaged every 2-3 days.
(§9) 2) generation of tumors: 7×10^6 tumor cells were injected subcutaneously into the back of nude mice, and the mice were grouped for treatment after the tumor sizes were as large as about 100-200 mm^3.
(§10) 3) treatment: 3 mice/group, treated with LDC10B, LDC10H, as well as controls MMAE and PBS with doses of 5 and 10 mg/kg every 5 days, three injections.
(§11) 4) the physical performance, body weights and tumor sizes of the animals were monitored. The number of animal death was recorded during the experiment.

[9] = test system: Transplanted HCC1954 tumor; experiment: as above; assay type: in vivo, nude mice; conditions: 10 mg/kg
Protocol: as §1, §8, §9, §10, §11

Transplanted H460 tumor = experiment: as above; assay type: in vivo, nude mice
Protocol: as §1, §8, §9, §10, §11

melanoma cell line A375 [10] = experiment: Cytotoxicity test of conjugate LDC10BR; assay type: cell-based; conditions: A375, incubated 15-30 min, then 2-3 days
Protocol: as §2
(§12) 1) human nasopharyngeal cancer cell line KB, melanoma cell line A375, and human lung cancer cell H460 were incubated at 37° C., 5% CO2 in RPMI 1640 medium containing 10% fetal bovine serum, the cells were passaged every 2-3 days.
(§13) 2) human nasopharyngeal cancer cell line KB, melanoma cell line A375, and human lung cancer cell H460 were plated at 1×10^3 cells per well (96-well plate) and incubated for 8-12 h at 37° C., 5% CO2.
as §5, with “control” for “controls”, “the” for “the test”, “plate” for “plates”
(§14) 4) CellTiter 96® Aqueous One Solution Cell Proliferation Assay (Promega) was added to each well to measure the amount of […] cells, and the plate was incubated in an incubator for 1 h at 37° C., 5% CO2.
(§15) 5) the plate was read at 490 nm on a microplate reader, and the cell survivals were compared for cells with or without the treatment of LDC conjugates. The LDC drug concentrations that are required for 50% cell death (IC50 values) were determined.

[11] = test system: human nasopharyngeal cancer cell line KB; experiment: Cytotoxicity test of conjugate LDC10BR; assay type: cell-based; conditions: incubated 15-30 min, then 2-3 days
Protocol: as §2, §12, §13
as §5, with “control” for “controls”, “the” for “the test”, “plate” for “plates”
as §14, §15

[12] = test system: human lung cancer cell H460; experiment: Cytotoxicity test of conjugate LDC10BR; assay type: cell-based; conditions: H460, incubated 15-30 min, then 2-3 days
Protocol: as §2, §12, §13
as §5, with “control” for “controls”, “the” for “the test”, “plate” for “plates”
as §14, §15

[13] = test system: ovarian cancer cell SKOV3; experiment: Cytotoxicity test of conjugate LDC10B; assay type: cell-based, human; conditions: SKOV3, Incubation Time 30 min
Protocol: as §2, §3, §4, §5, §6, §7

[14] = test system: breast cancer cell line HCC1954; experiment: Cytotoxicity test of conjugate LDC10B; assay type: cell-based, human; conditions: HCC1954, Incubation Time 30 min
Protocol: as §2, §3, §4, §5, §6, §7

## CC[C@H](C)[C@@H]([C@@H](CC(=O)N1CCC[C@H]1[C@H](OC)[C@@H](C)C(=O)N[C@H](C)[C@@H](O)c1ccccc1)OC)N(C)C(=O)[C@@H](NC(=O)[C@H](C(C)C)N(C)C(=O)OCc1ccc(NC(=O)[C@H](CCCNC(N)=O)NC(=O)[C@@H](NC(=O)CCCCCN2C(=O)CC(SC[C@H](NC(=O)CC[C@H](NC(=O)c3ccc(NCc4cnc5[nH]c(N)nc(=O)c5n4)cc3)C(=O)O)C(=O)N[C@@H](CCCCN)C(=O)N[C@@H](CCC(=O)O)C(=O)N[C@@H](Cc3ccccc3)C(=O)N[C@@H](CC(C)C)C(=O)N[C@@H](Cc3c[nH]cn3)C(=O)N3CCC[C@H]3C(=O)N[C@@H](CO)C(=O)N[C@@H](CCCCN)C(=O)N[C@H](C(=O)N[C@@H](CC(=O)O)C(=O)N[C@@H](CC(C)C)C(=O)N3CCC[C@H]3C(=O)N[C@@H](CCCNC(=N)N)C(=O)O)C(C)C)C2=O)C(C)C)cc1)C(C)C (stereo partly shown) [LDC10B] (I: {Pteroyl-γGlu}-CKEFLHPSKVDLPR-OH / II: V[Cit][PABC][NMeV]V[Dil][Dolaproine]-X1; linker I:1-II:N via Hexanoyl(6-succinimido-3yl))
[1]; 20 min
  Concentration in serum: 10800 ng/mL
[1]; 2 h
  Concentration in serum: 5035 ng/mL
[1]; 4 h
  Concentration in serum: 530 ng/mL
[1]; 24 h
  Concentration in serum: 117.9 ng/mL
  detected in serum at 24 h after treatment (in words): Trace amount
[1]; Before Treatment
  Concentration in serum: 0 ng/mL
[2]
  IC50: 0.0588 µM
[3]
  IC50: 0.0751 µM
Melanoma cell line A375 [4]
  IC50: 10 µM
[5]
  IC50: 0.76 µM
[6]
  IC50: 0.0159 µM
[7]
  IC50: 0.0148 µM
[8]
  IC50: 0.0504 µM
Transplanted SKOV3 tumor; Before Injection
  Body weight of mice: 22.96 g
Transplanted SKOV3 tumor; Five days after Injection 1
  Body weight of mice: 22.44 g
Transplanted SKOV3 tumor; Five days after Injection 2
  Body weight of mice: 23.23 g
Transplanted SKOV3 tumor; Five days after Injection 3
  Body weight of mice: 23.53 g
[9]; Before Injection
  Body weight of mice: 21.85 g
[9]; Five days after Injection 1
  Body weight of mice: 22.2 g
[9]; Five days after Injection 2
  Body weight of mice: 22.55 g
[9]; Five days after Injection 3
  Body weight of mice: 22.38 g
Transplanted H460 tumor; 5 mg/kg, Before Injection
  Body weight of mice: 23.13 g
Transplanted H460 tumor; 5 mg/kg, Five days after Injection 1
  Body weight of mice: 22.53 g
Transplanted H460 tumor; 5 mg/kg, Five days after Injection 2
  Body weight of mice: 22.26 g
Transplanted H460 tumor; 5 mg/kg, Five days after Injection 3
  Body weight of mice: 21.65 g
Transplanted H460 tumor; 10 mg/kg, Before Injection
  Body weight of mice: 22.51 g
Transplanted H460 tumor; 10 mg/kg, Five days after Injection 1
  Body weight of mice: 22.53 g
Transplanted H460 tumor; 10 mg/kg, Five days after Injection 2
  Body weight of mice: 23.37 g
Transplanted H460 tumor; 10 mg/kg, Five days after Injection 3
  Body weight of mice: 23 g
Melanoma cell line A375 [10]
  IC50: 51.3 µM
[11]
  IC50: 2.2 µM
[12]
  IC50: 6.8 µM
[13]
  IC50: 0.0157 µM
[14]
  IC50: 0.0141 µM

Source: US11571480B2, “Multi-ligand drug conjugates and uses thereof” (priority 2015, dated 2023)
